Source: the supplement of paper PMC10065799, “High-throughput profiling of sequence recognition by tyrosine kinases and SH2 domains using bacterial peptide display” (eLife, 2023)

Experiments:
[1] = tested on: Fer (mouse); assay: phosphorylation enrichment, bacterial display (enrichment ratio); higher = better substrate or ligand; peptides without Tyr show the background
[2] = tested on: AncSZ; assay: as above
[3] = target: FGFR1 (UniProt P11362); assay: as above
[4] = target: MERTK (UniProt Q12866); assay: as above
[5] = target: Fyn (UniProt P06241); assay: as above
Chain of Fyn (P06241 whole entry, looked up): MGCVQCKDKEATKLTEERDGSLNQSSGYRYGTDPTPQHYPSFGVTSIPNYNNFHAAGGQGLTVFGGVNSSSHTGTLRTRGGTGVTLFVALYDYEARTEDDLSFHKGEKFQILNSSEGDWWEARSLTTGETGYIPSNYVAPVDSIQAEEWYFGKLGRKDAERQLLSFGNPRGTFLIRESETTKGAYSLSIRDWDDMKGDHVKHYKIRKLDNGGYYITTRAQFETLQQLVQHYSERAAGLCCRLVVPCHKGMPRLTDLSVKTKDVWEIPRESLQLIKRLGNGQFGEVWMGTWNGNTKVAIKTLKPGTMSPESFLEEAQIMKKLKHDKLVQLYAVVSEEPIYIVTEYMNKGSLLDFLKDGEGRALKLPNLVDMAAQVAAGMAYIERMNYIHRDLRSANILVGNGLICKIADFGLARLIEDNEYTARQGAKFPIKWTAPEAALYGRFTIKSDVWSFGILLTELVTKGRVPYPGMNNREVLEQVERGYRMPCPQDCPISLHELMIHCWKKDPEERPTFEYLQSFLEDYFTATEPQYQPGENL

[6] = target: FGFR3 (UniProt P22607); assay: as above
Chain of FGFR3 (P22607 whole entry, looked up): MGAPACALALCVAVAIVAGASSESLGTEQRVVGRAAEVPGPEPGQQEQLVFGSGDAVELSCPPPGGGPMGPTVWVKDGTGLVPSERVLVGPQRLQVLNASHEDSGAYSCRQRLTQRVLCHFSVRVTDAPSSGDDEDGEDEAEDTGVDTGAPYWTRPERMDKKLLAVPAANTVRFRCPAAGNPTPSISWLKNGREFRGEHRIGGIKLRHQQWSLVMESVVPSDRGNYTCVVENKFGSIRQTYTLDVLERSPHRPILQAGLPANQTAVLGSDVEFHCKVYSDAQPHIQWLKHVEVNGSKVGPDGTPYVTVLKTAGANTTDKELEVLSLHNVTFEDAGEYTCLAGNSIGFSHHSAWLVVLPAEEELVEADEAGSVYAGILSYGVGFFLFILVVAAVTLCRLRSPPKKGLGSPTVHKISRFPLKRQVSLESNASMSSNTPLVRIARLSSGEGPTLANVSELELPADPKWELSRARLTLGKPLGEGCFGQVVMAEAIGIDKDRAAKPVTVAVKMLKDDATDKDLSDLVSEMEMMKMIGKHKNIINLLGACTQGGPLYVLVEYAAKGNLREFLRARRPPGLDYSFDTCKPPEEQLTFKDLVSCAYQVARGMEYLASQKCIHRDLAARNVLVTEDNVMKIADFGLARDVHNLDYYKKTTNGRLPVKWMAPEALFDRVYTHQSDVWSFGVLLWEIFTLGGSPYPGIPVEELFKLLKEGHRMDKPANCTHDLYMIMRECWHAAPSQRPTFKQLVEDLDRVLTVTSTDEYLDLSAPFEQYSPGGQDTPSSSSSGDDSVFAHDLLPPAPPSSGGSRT

[7] = target: Hck (UniProt P08631); assay: as above
Chain of Hck (P08631 whole entry, looked up): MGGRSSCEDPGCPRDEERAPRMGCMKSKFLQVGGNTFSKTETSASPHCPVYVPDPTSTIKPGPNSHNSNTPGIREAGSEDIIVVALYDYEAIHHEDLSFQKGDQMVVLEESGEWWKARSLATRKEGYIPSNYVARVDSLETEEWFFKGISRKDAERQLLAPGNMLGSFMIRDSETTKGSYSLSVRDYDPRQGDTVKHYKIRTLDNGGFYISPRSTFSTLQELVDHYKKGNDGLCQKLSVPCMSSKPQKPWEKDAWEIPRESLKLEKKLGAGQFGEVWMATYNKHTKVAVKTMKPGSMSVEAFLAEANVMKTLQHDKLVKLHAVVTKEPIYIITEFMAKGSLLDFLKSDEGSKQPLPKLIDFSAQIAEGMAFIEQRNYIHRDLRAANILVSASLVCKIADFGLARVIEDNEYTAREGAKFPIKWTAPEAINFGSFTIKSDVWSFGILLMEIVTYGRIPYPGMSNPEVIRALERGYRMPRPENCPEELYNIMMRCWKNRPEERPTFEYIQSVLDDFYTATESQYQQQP

[8] = target: Jak2 (UniProt O60674); assay: as above
[9] = target: Fes (UniProt P07332); assay: as above
Chain of Fes (P07332 whole entry, looked up): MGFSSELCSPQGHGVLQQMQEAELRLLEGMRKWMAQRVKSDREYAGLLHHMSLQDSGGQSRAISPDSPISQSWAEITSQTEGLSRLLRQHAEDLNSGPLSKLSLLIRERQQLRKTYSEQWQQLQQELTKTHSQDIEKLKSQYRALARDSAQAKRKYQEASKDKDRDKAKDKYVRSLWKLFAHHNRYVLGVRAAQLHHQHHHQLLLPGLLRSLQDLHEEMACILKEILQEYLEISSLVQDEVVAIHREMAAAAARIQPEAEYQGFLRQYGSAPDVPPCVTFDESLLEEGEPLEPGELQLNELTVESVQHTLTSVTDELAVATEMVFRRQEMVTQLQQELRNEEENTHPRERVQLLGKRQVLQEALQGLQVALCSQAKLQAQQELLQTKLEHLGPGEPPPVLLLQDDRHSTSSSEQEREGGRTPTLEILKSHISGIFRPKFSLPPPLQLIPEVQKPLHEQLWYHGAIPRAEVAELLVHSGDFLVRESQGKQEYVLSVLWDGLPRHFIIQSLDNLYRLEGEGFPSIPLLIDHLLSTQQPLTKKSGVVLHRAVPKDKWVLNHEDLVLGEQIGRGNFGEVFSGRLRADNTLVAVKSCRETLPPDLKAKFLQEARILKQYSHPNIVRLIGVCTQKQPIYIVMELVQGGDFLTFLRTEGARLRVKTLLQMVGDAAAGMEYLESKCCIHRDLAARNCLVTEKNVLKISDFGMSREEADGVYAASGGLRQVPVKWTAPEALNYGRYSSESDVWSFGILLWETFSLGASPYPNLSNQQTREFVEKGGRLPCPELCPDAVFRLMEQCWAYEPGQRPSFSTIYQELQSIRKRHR

[10] = tested on: c-Abl (mouse); assay: as above
[11] = target: EPHB1 (UniProt P54762); assay: as above
[12] = tested on: c-Src; assay: as above
[13] = target: EPHB2 (UniProt P29323); assay: as above
Chain of EPHB2 (P29323 whole entry, looked up): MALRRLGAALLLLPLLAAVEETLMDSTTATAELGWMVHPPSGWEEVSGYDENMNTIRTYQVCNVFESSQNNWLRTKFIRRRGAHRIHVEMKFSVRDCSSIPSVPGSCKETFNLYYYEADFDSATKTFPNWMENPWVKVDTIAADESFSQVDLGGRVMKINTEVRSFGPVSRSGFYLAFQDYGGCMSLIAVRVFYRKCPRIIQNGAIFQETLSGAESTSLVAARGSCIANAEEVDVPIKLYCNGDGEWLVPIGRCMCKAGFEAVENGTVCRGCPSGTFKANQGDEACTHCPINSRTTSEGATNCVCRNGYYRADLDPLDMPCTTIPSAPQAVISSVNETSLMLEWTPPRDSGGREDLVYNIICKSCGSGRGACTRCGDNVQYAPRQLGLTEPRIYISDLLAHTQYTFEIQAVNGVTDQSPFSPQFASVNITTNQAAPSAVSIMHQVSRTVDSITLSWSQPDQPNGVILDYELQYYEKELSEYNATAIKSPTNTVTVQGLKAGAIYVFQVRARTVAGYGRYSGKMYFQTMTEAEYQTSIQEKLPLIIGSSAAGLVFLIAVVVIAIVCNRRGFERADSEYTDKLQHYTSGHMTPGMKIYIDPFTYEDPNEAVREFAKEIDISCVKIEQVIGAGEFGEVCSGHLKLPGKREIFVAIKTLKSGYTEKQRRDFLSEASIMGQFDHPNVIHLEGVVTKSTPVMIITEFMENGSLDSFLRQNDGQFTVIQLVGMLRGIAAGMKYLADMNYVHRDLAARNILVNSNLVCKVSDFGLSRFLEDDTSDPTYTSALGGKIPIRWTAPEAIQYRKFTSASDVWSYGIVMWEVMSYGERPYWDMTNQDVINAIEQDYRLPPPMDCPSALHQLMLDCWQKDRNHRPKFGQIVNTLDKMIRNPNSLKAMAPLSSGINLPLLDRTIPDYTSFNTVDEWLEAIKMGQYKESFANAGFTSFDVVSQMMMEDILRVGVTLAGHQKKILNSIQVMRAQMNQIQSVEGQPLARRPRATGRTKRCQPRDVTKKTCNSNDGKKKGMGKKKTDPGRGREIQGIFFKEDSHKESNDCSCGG

[14] = target: SHP2-C SH2; assay: SH2 binding enrichment of the phosphorylated peptide, bacterial display (enrichment ratio); higher = better substrate or ligand; peptides without Tyr show the background
[15] = target: Grb2 SH2 (UniProt P62993); assay: as above
Chain of Grb2 SH2 (P62993 whole entry, looked up): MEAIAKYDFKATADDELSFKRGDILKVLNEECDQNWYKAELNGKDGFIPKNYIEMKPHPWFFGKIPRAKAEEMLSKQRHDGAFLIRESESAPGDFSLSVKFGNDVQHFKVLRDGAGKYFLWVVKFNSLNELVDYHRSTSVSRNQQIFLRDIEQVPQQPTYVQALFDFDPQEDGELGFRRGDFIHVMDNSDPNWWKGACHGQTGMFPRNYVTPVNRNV

[16] = target: c-Src SH2; assay: as above
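Wherever SH2 binding enrichment of the phosphorylated peptide, bacterial display is given: peptide library displayed on the E. coli surface as eCPX fusions, selected cells deep-sequenced, score is each peptide's frequency after selection divided by its frequency in the input.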
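Wherever phosphorylation enrichment, bacterial display is given: 11-residue human phosphosite peptides and single-mutation variants displayed on the E. coli surface, counted by deep sequencing, each peptide's frequency after selection divided by its frequency in the unselected input library; frequency after pTyr selection over input frequency; kinase dosed for 20-30% of maximal phosphorylation in three min.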

Chain of FGFR1 (P11362 whole entry, looked up): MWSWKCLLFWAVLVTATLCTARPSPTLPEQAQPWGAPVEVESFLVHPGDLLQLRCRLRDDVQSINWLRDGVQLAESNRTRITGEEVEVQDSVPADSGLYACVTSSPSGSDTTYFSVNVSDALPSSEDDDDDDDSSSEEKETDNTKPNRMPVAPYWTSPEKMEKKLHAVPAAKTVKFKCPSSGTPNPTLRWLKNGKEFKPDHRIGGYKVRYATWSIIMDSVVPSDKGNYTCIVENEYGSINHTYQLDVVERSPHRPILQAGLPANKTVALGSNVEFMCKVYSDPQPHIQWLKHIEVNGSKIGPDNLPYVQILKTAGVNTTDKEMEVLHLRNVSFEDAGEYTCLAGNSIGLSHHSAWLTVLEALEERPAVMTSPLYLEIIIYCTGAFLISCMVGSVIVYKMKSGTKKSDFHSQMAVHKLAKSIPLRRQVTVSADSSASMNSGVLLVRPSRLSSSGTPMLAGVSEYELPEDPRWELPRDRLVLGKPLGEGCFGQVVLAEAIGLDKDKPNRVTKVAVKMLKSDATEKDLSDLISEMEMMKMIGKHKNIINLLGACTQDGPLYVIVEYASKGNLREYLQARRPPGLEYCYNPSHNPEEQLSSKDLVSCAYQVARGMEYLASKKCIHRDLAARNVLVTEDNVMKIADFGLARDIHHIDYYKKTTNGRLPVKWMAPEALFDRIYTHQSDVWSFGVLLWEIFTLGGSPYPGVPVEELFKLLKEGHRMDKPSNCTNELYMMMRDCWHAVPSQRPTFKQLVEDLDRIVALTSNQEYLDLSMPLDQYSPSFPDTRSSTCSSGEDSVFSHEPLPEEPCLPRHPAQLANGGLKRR

With FPKARYRWLVL [APTX_Y214_H215R_YF] the phosphorylation enrichment [1] was 0.352, the phosphorylation enrichment [2] was 0.715 and the phosphorylation enrichment [3] was 0.533. The phosphorylation enrichment [4] was 0.494, the phosphorylation enrichment [5] was 0.386 and the phosphorylation enrichment [6] was 0.534. It also gave a phosphorylation enrichment [7] of 0.407, a phosphorylation enrichment [8] of 0.717 and a phosphorylation enrichment [9] of 0.72. For the same sequence, the phosphorylation enrichment [10] was 0.534, the phosphorylation enrichment [11] was 0.448 and the phosphorylation enrichment [12] was 0.436. It also gave a phosphorylation enrichment [13] of 0.371, an SH2 binding enrichment [14] of 0.568 and an SH2 binding enrichment [15] of 0.909. The SH2 binding enrichment [16] was 0.575.

KDFNKYVAYIE [KDM4B_Y31] gave a phosphorylation enrichment [1] of 0.359, a phosphorylation enrichment [2] of 0.718 and a phosphorylation enrichment [3] of 0.375. It also gave a phosphorylation enrichment [4] of 0.379, a phosphorylation enrichment [5] of 0.365 and a phosphorylation enrichment [6] of 0.53. The phosphorylation enrichment [7] was 0.485, the phosphorylation enrichment [8] was 0.603 and the phosphorylation enrichment [9] was 0.767. The phosphorylation enrichment [10] was 0.483, the phosphorylation enrichment [11] was 0.461 and the phosphorylation enrichment [12] was 0.364. For the same sequence, the phosphorylation enrichment [13] was 0.449, the SH2 binding enrichment [14] was 1.14 and the SH2 binding enrichment [15] was 0.83. The SH2 binding enrichment [16] was 0.927.

LMIEEYLTKEP [BAG3_Y457_L462P] gave a phosphorylation enrichment [1] of 0.745, a phosphorylation enrichment [2] of 2.05 and a phosphorylation enrichment [3] of 1.2. For the same sequence, the phosphorylation enrichment [4] was 1.12, the phosphorylation enrichment [5] was 0.6 and the phosphorylation enrichment [6] was 1.88. It also gave a phosphorylation enrichment [7] of 1.5, a phosphorylation enrichment [8] of 2.78 and a phosphorylation enrichment [9] of 2.51. The phosphorylation enrichment [10] was 2.45, the phosphorylation enrichment [11] was 1.15 and the phosphorylation enrichment [12] was 1.49. It also gave a phosphorylation enrichment [13] of 0.975, an SH2 binding enrichment [14] of 0.953 and an SH2 binding enrichment [15] of 0.743. For the same sequence, the SH2 binding enrichment [16] was 0.552.

ADRTRYSAFGG [RBM4_Y361_A359T] was tested, and the phosphorylation enrichment [1] was 0.4, the phosphorylation enrichment [2] was 0.599 and the phosphorylation enrichment [3] was 0.391. For the same sequence, the phosphorylation enrichment [4] was 0.382, the phosphorylation enrichment [5] was 0.413 and the phosphorylation enrichment [6] was 0.44. It also gave a phosphorylation enrichment [7] of 0.37, a phosphorylation enrichment [8] of 0.551 and a phosphorylation enrichment [9] of 0.797. It also gave a phosphorylation enrichment [10] of 0.495, a phosphorylation enrichment [11] of 0.345 and a phosphorylation enrichment [12] of 0.399. For the same sequence, the phosphorylation enrichment [13] was 0.356, the SH2 binding enrichment [14] was 1.08 and the SH2 binding enrichment [15] was 0.897. For the same sequence, the SH2 binding enrichment [16] was 0.617.

YSSLGYPLPEG [ZSWIM4_Y87_P89L] gave a phosphorylation enrichment [1] of 0.687, a phosphorylation enrichment [2] of 1.01 and a phosphorylation enrichment [3] of 1.28. It also gave a phosphorylation enrichment [4] of 7.91, a phosphorylation enrichment [5] of 2.63 and a phosphorylation enrichment [6] of 1.06. For the same sequence, the phosphorylation enrichment [7] was 2.05, the phosphorylation enrichment [8] was 0.785 and the phosphorylation enrichment [9] was 0.904. For the same sequence, the phosphorylation enrichment [10] was 0.978, the phosphorylation enrichment [11] was 0.53 and the phosphorylation enrichment [12] was 1.57. For the same sequence, the phosphorylation enrichment [13] was 0.758, the SH2 binding enrichment [14] was 10.8 and the SH2 binding enrichment [15] was 0.986. The SH2 binding enrichment [16] was 2.8.

SSDKVYAHQMD [MLH1_Y379_V384D] was tested, and the phosphorylation enrichment [1] was 0.395, the phosphorylation enrichment [2] was 0.611 and the phosphorylation enrichment [3] was 0.452. For the same sequence, the phosphorylation enrichment [4] was 0.408, the phosphorylation enrichment [5] was 0.493 and the phosphorylation enrichment [6] was 0.52. For the same sequence, the phosphorylation enrichment [7] was 0.419, the phosphorylation enrichment [8] was 0.497 and the phosphorylation enrichment [9] was 0.708. The phosphorylation enrichment [10] was 0.442, the phosphorylation enrichment [11] was 0.537 and the phosphorylation enrichment [12] was 0.491. For the same sequence, the phosphorylation enrichment [13] was 0.502, the SH2 binding enrichment [14] was 0.552 and the SH2 binding enrichment [15] was 0.729. The SH2 binding enrichment [16] was 0.576.

Sequence HHTDEYEFDEL [TGM1_Y134_YF] has a phosphorylation enrichment [1] of 0.622, a phosphorylation enrichment [2] of 1.38 and a phosphorylation enrichment [3] of 1.07. The phosphorylation enrichment [4] was 0.445, the phosphorylation enrichment [5] was 0.725 and the phosphorylation enrichment [6] was 0.852. The phosphorylation enrichment [7] was 0.697, the phosphorylation enrichment [8] was 1.09 and the phosphorylation enrichment [9] was 1.3. It also gave a phosphorylation enrichment [10] of 0.96, a phosphorylation enrichment [11] of 0.909 and a phosphorylation enrichment [12] of 0.745. It also gave a phosphorylation enrichment [13] of 0.936, an SH2 binding enrichment [14] of 1.73 and an SH2 binding enrichment [15] of 1.45. The SH2 binding enrichment [16] was 0.43.

With PVQAASQKVVA [HBB_Y131_Y131S] the phosphorylation enrichment [1] was 0.414, the phosphorylation enrichment [2] was 0.482 and the phosphorylation enrichment [3] was 0.477. It also gave a phosphorylation enrichment [4] of 0.396, a phosphorylation enrichment [5] of 0.445 and a phosphorylation enrichment [6] of 1.55. The phosphorylation enrichment [7] was 0.426, the phosphorylation enrichment [8] was 0.398 and the phosphorylation enrichment [9] was 1.36. The phosphorylation enrichment [10] was 0.571, the phosphorylation enrichment [11] was 0.592 and the phosphorylation enrichment [12] was 0.469. For the same sequence, the phosphorylation enrichment [13] was 0.414, the SH2 binding enrichment [14] was 0.712 and the SH2 binding enrichment [15] was 0.623. The SH2 binding enrichment [16] was 0.432.

For KGEDFYCVTRH [FHL1_Y149_C153R], the phosphorylation enrichment [1] was 0.662, the phosphorylation enrichment [2] was 1.22 and the phosphorylation enrichment [3] was 0.498. It also gave a phosphorylation enrichment [4] of 0.82, a phosphorylation enrichment [5] of 0.633 and a phosphorylation enrichment [6] of 0.715. For the same sequence, the phosphorylation enrichment [7] was 0.808, the phosphorylation enrichment [8] was 1 and the phosphorylation enrichment [9] was 1.2. It also gave a phosphorylation enrichment [10] of 0.835, a phosphorylation enrichment [11] of 0.592 and a phosphorylation enrichment [12] of 0.794. For the same sequence, the phosphorylation enrichment [13] was 0.558, the SH2 binding enrichment [14] was 0.694 and the SH2 binding enrichment [15] was 0.766. The SH2 binding enrichment [16] was 0.357.

Sequence KDQGGYAMHQD [MAPT_Y29_T30A] has a phosphorylation enrichment [1] of 0.419, a phosphorylation enrichment [2] of 0.677 and a phosphorylation enrichment [3] of 0.329. The phosphorylation enrichment [4] was 0.426, the phosphorylation enrichment [5] was 0.392 and the phosphorylation enrichment [6] was 0.574. For the same sequence, the phosphorylation enrichment [7] was 0.471, the phosphorylation enrichment [8] was 0.528 and the phosphorylation enrichment [9] was 0.798. For the same sequence, the phosphorylation enrichment [10] was 0.557, the phosphorylation enrichment [11] was 0.406 and the phosphorylation enrichment [12] was 0.487. The phosphorylation enrichment [13] was 0.476, the SH2 binding enrichment [14] was 0.399 and the SH2 binding enrichment [15] was 0.805. It also gave an SH2 binding enrichment [16] of 0.485.

In the case of RLDRSYSFSFS [PEAR1_Y890_YF], the phosphorylation enrichment [1] is reported as 0.809, the phosphorylation enrichment [2] is reported as 1.06 and the phosphorylation enrichment [3] is reported as 0.738. It also gave a phosphorylation enrichment [4] of 0.62, a phosphorylation enrichment [5] of 0.702 and a phosphorylation enrichment [6] of 0.607. For the same sequence, the phosphorylation enrichment [7] was 0.791, the phosphorylation enrichment [8] was 0.816 and the phosphorylation enrichment [9] was 0.984. For the same sequence, the phosphorylation enrichment [10] was 0.593, the phosphorylation enrichment [11] was 0.783 and the phosphorylation enrichment [12] was 0.575. It also gave a phosphorylation enrichment [13] of 0.48, an SH2 binding enrichment [14] of 0.677 and an SH2 binding enrichment [15] of 0.75. The SH2 binding enrichment [16] was 0.544.

For FQSKHYACIRQ [TIMP3_Y182_YF], the phosphorylation enrichment [1] was 0.472, the phosphorylation enrichment [2] was 0.692 and the phosphorylation enrichment [3] was 0.42. The phosphorylation enrichment [4] was 0.503, the phosphorylation enrichment [5] was 0.375 and the phosphorylation enrichment [6] was 0.512. The phosphorylation enrichment [7] was 0.392, the phosphorylation enrichment [8] was 0.823 and the phosphorylation enrichment [9] was 0.829. The phosphorylation enrichment [10] was 0.659, the phosphorylation enrichment [11] was 0.541 and the phosphorylation enrichment [12] was 0.425. For the same sequence, the phosphorylation enrichment [13] was 0.478, the SH2 binding enrichment [14] was 6.08 and the SH2 binding enrichment [15] was 1.01. For the same sequence, the SH2 binding enrichment [16] was 1.79.

With SVTCTDSPALN [TP53_Y126_Y126D] the phosphorylation enrichment [1] was 0.567, the phosphorylation enrichment [2] was 0.975 and the phosphorylation enrichment [3] was 0.491. The phosphorylation enrichment [4] was 0.351, the phosphorylation enrichment [5] was 0.447 and the phosphorylation enrichment [6] was 0.805. The phosphorylation enrichment [7] was 0.474, the phosphorylation enrichment [8] was 0.958 and the phosphorylation enrichment [9] was 1.13. The phosphorylation enrichment [10] was 0.847, the phosphorylation enrichment [11] was 0.6 and the phosphorylation enrichment [12] was 0.427. It also gave a phosphorylation enrichment [13] of 0.564, an SH2 binding enrichment [14] of 0.662 and an SH2 binding enrichment [15] of 0.667. The SH2 binding enrichment [16] was 0.419.
